5 molecules from patent US20210347891A1 can be followed below.

The target of assay [1] is single chain FcRn-β2m-his (human scFcRn, Acro Biosystems Cat. No. FCM-H5286) (human) (UniProt P55899). The experiment in a line: SPR, antibody on CM5 chip, scFcRn 400-25 nM, pH 5.8 PBS.
Assay [2] shares this target. The experiment in a line: SPR, antibody on CM5 chip, scFcRn, pH 5.8.
The target is the same in assay [3]. Kind of assay: SPR, antibody on CM5 chip, scFcRn 400-25 nM, pH 5.8 PBS, 1:1 Langmuir. A general note: Surface plasmon resonance follows binding to a sensor surface in real time, without labels.

Positions count from the first letter of the chain named. Numbers in names are those of the source.

Usually Kd stands for the constant that tells how readily two partners part at equilibrium. Low readings indicate tighter binding, high ones weaker binding. Broadly, the koff is a measure of how fast the partners let go of each other. Usually kon stands for the rate constant with which the complex forms. A high value points to fast association.

Chain of single chain FcRn-β2m-his (human scFcRn, Acro Biosystems Cat. No. FCM-H5286) (human) (P55899 other isoform, or with tags, fused parts or gaps): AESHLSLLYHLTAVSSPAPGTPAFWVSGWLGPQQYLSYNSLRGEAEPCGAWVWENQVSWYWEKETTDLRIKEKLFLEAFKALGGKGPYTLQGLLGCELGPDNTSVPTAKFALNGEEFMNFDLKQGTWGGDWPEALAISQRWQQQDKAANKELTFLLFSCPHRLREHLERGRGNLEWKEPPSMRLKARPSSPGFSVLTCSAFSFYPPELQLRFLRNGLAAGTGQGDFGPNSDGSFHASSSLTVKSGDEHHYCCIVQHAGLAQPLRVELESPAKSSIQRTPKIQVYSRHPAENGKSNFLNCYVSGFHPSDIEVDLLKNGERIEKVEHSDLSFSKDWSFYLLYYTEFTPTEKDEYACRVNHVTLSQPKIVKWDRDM

B1: Herceptin-IgG2 (wild type IgG2 with the Fab of trastuzumab) (antibody, part only; not given: Fab (trastuzumab), not shown: another chain or arm of the molecule)
Fc: ERKCCVECPPCPAPPVAGPSVFLFPPKPKDTLMISRTPEVTCVVVDVSHEDPEVQFNWYVDGVEVHNAKTKPREEQFNSTFRVVSVLTVVHQDWLNGKEYKCKVSNKGLPAPIEKTISKTKGQPREPQVYTLPPSREEMTKNQVSLTCLVKGFYPSDISVEWESNGQPENNYKTTPPMLDSDGSFFLYSKLTVDKSRWQQGNVFSCSVMHEALHNHYTQKSLSLSPGK
modifications: Glycosylated at N297 (HEK293F expression). The Fc is a disulfide-linked homodimer in the full IgG.
As for B1, in assay [1], the equilibrium dissociation constant (Kd) amounted to 2140 nM.

B2: Herceptin-IgG2-DHS (V309D, Q311H, N434S) (antibody, part only; not given: trastuzumab Fab, not shown: another chain or arm of the molecule)
Fc: B1 Fc with V90D, Q92H, N215S
modifications: Glycosylated at N297 (HEK293F expression). The Fc is a disulfide-linked homodimer in the full IgG.
Regarding B2, in assay [2], the fold enhanced KD comparing with wild type IgG2 amounted to 5.7 fold. In assay [3], the dissociation constant Kd was 377 nM, the koff was found to be 0.086 s⁻¹ and the kon is 227000 M⁻¹ s⁻¹.

B3: Herceptin-IgG3 (wild type IgG3 with the Fab of trastuzumab) (antibody, part only; not given: trastuzumab Fab; H435 or R435 unclear, not shown: another chain or arm of the molecule)
Fc: ELKTPLGDTTHTCPRCPEPKSCDTPPPCPRCPEPKSCDTPPPCPRCPEPKSCDTPPPCPRCPAPELLGGPSVFLFPPKPKDTLMISRTPEVTCVVVDVSHEDPEVQFKWYVDGVEVHNAKTKPREEQYNSTFRVVSVLTVLHQDWLNGKEYKCKVSNKALPAPIEKTISKTKGQPREPQVYTLPPSREEMTKNQVSLTCLVKGFYPSDIAVEWESSGQPENNYNTTPPMLDSDGSFFLYSKLTVDKSRWQQGNIFSCSVMHEALHNHFTQKSLSLSPGK
modifications: Glycosylated Fc homodimer (HEK293F); one chain is given.
Molecule B3 displayed a Kd in assay [1] of 4080 nM.

B4: Herceptin-IgG3-DHS (L309D, Q311H, N434S) (antibody, part only; not given: trastuzumab Fab, not shown: another chain or arm of the molecule)
Fc: B3 Fc with L141D, Q143H, N266S
modifications: Glycosylated Fc homodimer (HEK293F); one chain is given.
As for B4, in assay [2], the fold enhanced KD comparing with wild type IgG3 was 5.5 fold. In assay [3], this molecule displayed an equilibrium dissociation constant (Kd) of 739 nM, a koff of 0.126 s⁻¹ and an association rate constant (kon) of 170000 M⁻¹ s⁻¹.

B5: Herceptin-IgG4-DHS (L309D, Q311H, N434S) (antibody, part only; not given: trastuzumab Fab, not shown: another chain or arm of the molecule)
Fc: ESKYGPPCPSCPAPEFLGGPSVFLFPPKPKDTLMISRTPEVTCVVVDVSQEDPEVQFNWYVDGVEVHNAKTKPREEQFNSTYRVVSVLTVDHHDWLNGKEYKCKVSNKGLPSSIEKTISKAKGQPREPQVYTLPPSQEEMTKNQVSLTCLVKGFYPSDIAVEWESNGQPENNYKTTPPVLDSDGSFFLYSRLTVDKSRWQEGNVFSCSVMHEALHSHYTQKSLSLSLGK
modifications: Glycosylated Fc homodimer (HEK293F); one chain is given.
With B5, the fold enhanced KD comparing with wild type IgG4 in assay [2] stood at 3 fold. In assay [3], this molecule showed a dissociation constant Kd of 832 nM, a koff of 0.151 s⁻¹ and a kon of 281000 M⁻¹ s⁻¹.
